Measurements: paper PMC5071168

How the values were obtained:
[1] = biological target: LvTIM-Cys47Ala (Litopenaeus vannamei)
[2] = biological target: triosephosphate isomerase from Litopenaeus vannamei (LvTIM), wild type (Litopenaeus vannamei); experiment: SEC

catalytic efficiency (kcat/Km) of LvTIM-Cys47Ala, similar to wild-type LvTIM [1] [M⁻¹ s⁻¹]	stoichiometry N [2]	Substance
2.33e+06		LvTIM-Cys47Ala (enzyme)
	2	triosephosphate isomerase from Litopenaeus vannamei (LvTIM), wild type (enzyme)
